# The nanobody polyreactivity screen of Harvey et al. (2022)
# Assay: yeast display, Sf9 membrane polyspecificity reagent, FACS + sequencing; frameworks hold sequencing errors
# Summary of the method: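 Polyreactivity labels are assigned by the sorting gate from which each nanobody was recovered. The gates were low and high (top ~1%), set on anti-HA fluorescence for expression and streptavidin fluorescence for reagent binding. Before sorting, galactose-induced (36–48 hours) yeast display cells were stained for 1 hour at 4 °C with 10% biotinylated, detergent-solubilized Sf9 membrane reagent.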
row,Sequence,polyreactivity (PSR sort gate)
1,QVQLVESGGGLVQAGGSLRLSCAASGRTFYTYAMGWYIQAPGKEREFVAAIRFSGGNTYYADSVKGRFTISRDNAKNTVYLQMKSLKPEDTAVYYCAARRLLYKYWTGGPYDYWGQGTQVTVSS,high polyreactivity
2,QVQLVESGGGLVQAGGSLRLSCAASGRTFYTYAMGWYRQAPGKERELVAAITYSGGRTSYADSVKGRFTISRDNAKNTVYLQMNSLKPEDTAVYYCAARTLGRRLDYGYWGQGTQVSVSS,low polyreactivity
3,QVQLVESGGGLVQAGGSLRLSCAASGRTFYTYAMGWYRQAPGKERELVATITSGGSTYYGDSVKGRFTISRDNAKNTVYLQMNSLKPEDTAVYYCDVEVFVDYDYWGQGTQVTVSS,high polyreactivity
4,QVQLVESGGGLVQAGGSLRLSCAASGRTFYVNAMGWYRQAPGKERELVAGISFSDGSTYYADSVKGRFTISRDNAKNTVYLQMNSLKPEDTAVYYCASVGAFDIYYGYGYWGQGTQVTVSS,low polyreactivity
5,QVQLVESGGGLVQAGGSLRLSCAASGRTFYVYTMGWYRQAPGKERELVAAISSGGTTNYADSVKGRFTISRDNAKNTVYLQMNSLKPEDTAVYYCATERGYRYRGPLRVNYDYWGQGTQVTVSS,low polyreactivity
6,QVQLVESGGGLVQAGGSLRLSCAASGRTFYWNAMGWYRQAPGKEREFVAAITNTAGYTYYADSVKGRFTISRDNAKNTVYLQMNSLKPEDTAVYYCAKSGNAGYRTYLRDYWGQGTQVTVSS,low polyreactivity
7,QVQLVESGGGLVQAGGSLRLSCAASGRTFYWYAMGWYRKAPGKERELVAAITSGGSTYYADSVKGRFTISRDNEKNTVYLQMNILKPEDTAVYYCGVDVDWWDGMDYWGQGTQVTVSS,high polyreactivity
8,QVQLVESGGGLVQAGGSLRLSCAASGRTFYWYAMGWYRQAPGKERELVAAIRRSGGRTYYADSVKGRFTISRDNAKNTVYLQMNSLKPEDTAVYYCNVAYLRYPGPLDYWGQGTQVTVSS,high polyreactivity
9,QVQLVESGGGLVQAGGSLRLSCAASGRTFYWYVMGWYRQAPGKERELVAAITQTGSSTYYADSVKGRFTISRDNAKNTVYLQMNSLKPEDTAVYYCADRLSRNHYEVDYWGQGTQVTVSS,low polyreactivity
10,QVQLVESGGGLVQAGGSLRLSCAASGRTFYYAMGWYRPAPGKERELVAGITWSGGSTYYADSVKGRFTISRDNAKNTVYLQMNSLKPEDTAVYYCNAVYRYRTYRYDYWGQGTQVTVSS,high polyreactivity
11,QVQLVESGGGLVQAGGSLRLSCAASGRTFYYNAMGWYRQAHGKERQLVADINWSGVRTYYADSVKGRFTISRDNAKNTVYLQMNSLKPEDTAVYYCAARVGPYSLAVDGFKHGYWGQGTQVTVSS,low polyreactivity
12,QVQLVESGGGLVQAGGSLRLSCAASGRTFYYNAMGWYRQAPGKERELVAAISASSGRTYYADSVKGRFTISRDNAKNTVYFPMNSLKPEDTAVYYCANRYGGDYTRGYGYWGQGTQVTVSS,high polyreactivity
13,QVQLVESGGGLVQAGGSLRLSCAASGRTFYYNAMGWYRQAPGKERELVATISWRGGNTYYADSVKGRFTISRDNAKNTVYLQMNSLKPEDTAVYYCNARTVGWKALTGKYDYWGQGTQVTVSS,high polyreactivity
14,QVQLVESGGGLVQAGGSLRLSCAASGRTFYYNAMVWYRQAPGKERELVAAITWSGGRTFYADSVKGRFTISRDNAKNTVYLQMNSLKPEDTAVYYCNAYPVFRSYDYWGQGTQVTVSS,high polyreactivity
15,QVQLVESGGGLVQAGGSLRLSCAASGRTFYYNTMGWYRQAPGKERELVATISRIGGSTYYADSVKGRFTISRDNAKNTVYLQMNSLKPEDTAVYYCAAYVAAYPTGYDYWGQGTQVTVSS,high polyreactivity
16,QVQLVESGGGLVQAGGSLRLSCAASGRTFYYYAMGWSRPAPGKERELVAGINSGGSTNYADSVKGRFTISRDNAKNTVYLQMNRLKPEDTAVYYCAVEDLGSEGWGWYKEMDYWGQGTQVTVSS,low polyreactivity

row,Sequence,polyreactivity (PSR sort gate)
1,QVQLVESGGGLVQAGGSLRLSCAASGRTFYYYAMGWYRLAPGKERELVAAISNRGGSTYYADSVKGRFTISRDNAKNTVYLQMNCLKPEDTAVYYCARRYSYLYTYGSWGQGPQVTVSS,high polyreactivity
2,QVQLVESGGGLVQAGGSLRLSCAASGRTFYYYAMGWYRPAPGKERELVAAITSGGRTYYADSVKGRFTISRDNAKNRVYLQMQSLKPEDTAVYYCAARDFFRYSLGYDYWGQGTQVTVSS,high polyreactivity
3,QVQLVESGGGLVQAGGSLRLSCAASGRTFYYYAMGWYRQAPGKEREFVAAITYRGDSTNYADSVKGRFTISRDNAKNTVYLQMNSLKPEDTAVYYCAADSPYQIYYYWGQGTQVTVSS,low polyreactivity
4,QVQLVESGGGLVQAGGSLRLSCAASGRTFYYYAMGWYRQAPGKEREFVASISYSGARTYYADSVKGRFTISRDNAKNTVYLQVNSLKPEDTAVYYCDAGYPLGGDYWGQGTQVTVSS,high polyreactivity
5,QVQLVESGGGLVQAGGSLRLSCAASGRTFYYYAMGWYRQAPGKERELVAAINWSSGSTYYADSVKGRFTISRDNAKNTVYLQMNSLKPEDTAVYYCNAESRWYIIPYGDFDYWGQGTQVTVSS,low polyreactivity
6,QVQLVESGGGLVQAGGSLRLSCAASGRTFYYYAMGWYRQAPGKERELVAAISSSGGSTYYADSVKGRFTISRDNAKNTVYLQMNSLKPEDTAVYYCNARYGGYRARYTYNYWGQGTQVTVSS,high polyreactivity
7,QVQLVESGGGLVQAGGSLRLSCAASGRTFYYYAMGWYRQAPGKERELVADITYSGGSTYYADSVKGRFTISRDNAKNTVYLQMNSLKPEDTAVYYCAARVTVSHWPYYYDSYDYWGQGTQVTVSS,low polyreactivity
8,QVQLVESGGGLVQAGGSLRLSCAASGRTFYYYAMGWYRQAPGKERELVAGITATGSSTYYADSVKGRFTISRDNAKYTVYLQMNSLKPEDTAVYYCAADGYRIDVYHADYRYDYWGQGTQVTVSS,low polyreactivity
9,QVQLVESGGGLVQAGGSLRLSCAASGRTFYYYAMGWYRQAPGKERELVARISYSGSNTYYADSVKGRFTISRDNAKNTVYLQMNSLKPEETAVYYCAAGYLVWRDSATLDYWGQGTQVTVSS,high polyreactivity
10,QVQLVESGGGLVQAGGSLRLSCAASGRTFYYYAMGWYRQAPGKERELVASITYYADSVKGRFTISRDNAKNTVYLQMNSLKPEDTAVYYCAAEHKYRYDYWGQGTQVTVSS,low polyreactivity
11,QVQLVESGGGLVQAGGSLRLSCAASGRTFYYYAMGWYRQAPGNERELVAAISRGGGTNYADSVKGRFTISRDNAKNTVYLQMNSLKPEDTAVYYCAAARIGPQRYDYWGHGTQVTVSS,high polyreactivity
12,QVQLVESGGGLVQAGGSLRLSCAASGRTFYYYTMGWYRQAPGKERELVAAISVSGGSTYYADSVKGRFTISRDNAKNTVYLQMNSLKPEDTAVYYCAAGDGWGRRYYWGQGTQVTVSS,high polyreactivity
13,QVQLVESGGGLVQAGGSLRLSCAASGRTFYYYTMGWYRQAPGKERELVAAITWNGGSTYYADSVKGRFTISRDNAKNTVYLQMNSLKPEDTGVYYCIARWTWRYDYWGQGTQVTLSS,high polyreactivity
14,QVQLVESGGGLVQAGGSLRLSCAASGRTIDSYAMGWSRQAPGKEREFVAAISYSGTSTYYADSVKGRFTISRDNAKNTVYLQMNSLKPEDTAVYYCSKEYNFRLWGQGTQVTVSS,low polyreactivity
15,QVQLVESGGGLVQAGGSLRLSCAASGRTIDYNGMGWYRQAPGKEREMVAVISSSGGSTFYADSVKGRFTISRDNAKNTVYLQMNSLKPEDTAVYYSAADFIVAYTLHGSYDYWGQGTQVTVSS,low polyreactivity
16,QVQLVESGGGLVQAGGSLRLSCAASGRTIGFNGMGWYRQAPGKERELVAAITRSGGNTYADSVKGRFTISRDNAKNTVYLQMNSLKPEDTAVYYCATTYVGVTLTGPGDYWGQGTQVTVSS,low polyreactivity
